Source: patent US20210246204A1 (Alector, published 2021)
Read-outs that look alike come from different tables or passages of the source. Each block holds one binder with its values, some of them ahead of it.

How the values were obtained:
[1] = target: T1, human Siglec-7 on primary human monocyte-derived dendritic cells (human, UniProt Q9Y286 19-467); test: flow cytometry, primary human dendritic cells
T1 construct: Endogenous Siglec-7 on dendritic cells differentiated from monocytes of healthy human donors
Description: The 12 humanized antibodies of S7AB were evaluated for binding to primary dendritic cells by flow cytometry. Monocytes were isolated from blood from healthy human donors using the RosetteSep™ monocyte isolation antibody cocktail (StemCell Technologies). The isolated monocytes were differentiated into dendritic cells with 100 ng/mL GM-CSF and 100 ng/mL IL-4 (Peprotech). Dendritic cells were incubated with dilutions of the anti-Siglec-7 antibodies for 30 minutes on ice in the dark, followed by a 30-minute incubation with a fluorescently-conjugated anti-human IgG secondary antibody. Cells were washed twice in FACS buffer (PBS+2% FBS, 2 mM EDTA), and flow cytometry was performed on a BD FACS Canto. Data were analyzed using FlowJo software (Ashland, Oreg.).

[2] = target: T1, human Siglec-7 on primary human …; test: cell-based or functional assay
[3] = target: T2, histidine-tagged human Siglec-7 (NovoProtein) (human, UniProt Q9Y286 19-353); test: BLI, antibody captured
T2 construct: Bought protein; also called recombinant human Siglec-7; recombinant Siglec-7; not shown: histidine tag
Procedure, shortened: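 Antibodies captured on anti-human or anti-mouse IgG Fc biosensors; His-tagged human Siglec-7 flowed at 0–100 nM (200 s association, 900 s dissociation). ka and kd from 1:1 multi-concentration fit; apparent KD = kd/ka.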

[4] = target: T1, human Siglec-7 on primary human …; test: cell-based or functional assay; remark: listed apart in the source
[5] = target: T2, histidine-tagged human Siglec-7 …; test: BLI (ForteBio), antibody captured
Description: In this assay, the humanized antibodies were compared directly to S7AB. Briefly, the antibodies were captured on anti-human or anti-mouse IgG Fc Biosensors (Pall ForteBio). Varying concentrations (0-100 nM) of histidine-tagged human Siglec-7 (NovoProtein) were then bound to the captured anti-Siglec-7 surface (200 s association time, 900 s dissociation time). Multi-concentration kinetic analysis was performed using a 1:1 interaction model to extract association and dissociation rate constants (kₐ and kd, respectively) for each antibody. Apparent affinity constants (KD) were calculated from the ratio kd/kₐ.

T1 sequence (Q9Y286 19-467): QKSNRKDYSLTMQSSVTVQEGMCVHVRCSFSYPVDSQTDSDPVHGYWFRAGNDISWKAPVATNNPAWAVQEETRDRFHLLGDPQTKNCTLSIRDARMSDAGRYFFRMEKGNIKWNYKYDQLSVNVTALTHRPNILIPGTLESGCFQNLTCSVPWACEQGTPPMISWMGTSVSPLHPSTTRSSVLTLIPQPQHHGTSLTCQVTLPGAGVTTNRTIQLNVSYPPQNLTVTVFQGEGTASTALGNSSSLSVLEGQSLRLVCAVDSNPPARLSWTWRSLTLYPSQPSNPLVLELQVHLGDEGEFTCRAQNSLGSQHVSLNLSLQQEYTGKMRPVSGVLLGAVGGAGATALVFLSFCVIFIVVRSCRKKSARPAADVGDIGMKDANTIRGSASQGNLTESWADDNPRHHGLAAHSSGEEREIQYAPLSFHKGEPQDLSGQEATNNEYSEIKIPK
T2 sequence (Q9Y286 19-353 limits assumed): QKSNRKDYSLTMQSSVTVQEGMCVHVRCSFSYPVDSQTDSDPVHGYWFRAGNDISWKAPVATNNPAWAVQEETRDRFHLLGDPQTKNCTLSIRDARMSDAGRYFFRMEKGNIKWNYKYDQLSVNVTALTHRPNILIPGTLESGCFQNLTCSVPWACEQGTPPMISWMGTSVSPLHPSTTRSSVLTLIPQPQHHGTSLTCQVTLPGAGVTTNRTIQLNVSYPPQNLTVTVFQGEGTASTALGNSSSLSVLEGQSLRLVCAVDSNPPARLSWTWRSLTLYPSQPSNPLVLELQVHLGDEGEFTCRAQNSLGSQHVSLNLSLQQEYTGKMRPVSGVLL

EC50 [1]: 4.6 nM
B1: S7AB-H1 (antibody, V domains shown)
VH: QVQLVQSGAEVKKPGASVKVSCKASGYAFTNCWMNWVRQAPGQGLEWMGRIFPGNGHTNYAQKFQGRVTMTRDTSTSTVYMELSSLRSEDTAVYYCARDYSDYYFDYWGQGTLVTVSS
VL: DIQMTQSPSSLSASVGDRVTITCRASQDINTYLNWYQQKPGKAPKLLIYYTSRLHSGVPSRFSGSGSGTDFTLTISSLQPEDFATYYCQQGNTLPWTFGQGTKLEIK

Maximal downregulation (% Siglec-7 remaining) [2]: 2.8%
Receptor downregulation, (pM, EC50) [2]: 67.3 pM
B2: S7AB-H8.44 huIgG1 LALAPS (antibody, V domains shown)
VH: QVQLVQSGAEVKKPGASVKVSCKASGYAFTAAWMNWVRQAPGQGLEWIGRIFPGLGHTNYAQKFQGRATLTEDTSTSTAYMELSSLRSEDTAVYYCARDYSDYYFDYWGQGTLVTVSS
VL: DIQMTQSPSSLSASVGDRVTITCRGSQDINTYLNWYQQKPGKAPKLLIYYTSRLHSGVPSRFSGSGSGTDYTLTISSLQPEDFATYYCQQGNILPWTFGQGTKLEIK

Maximal downregulation (% Siglec-7 remaining) [2]: < 0.1%
Receptor downregulation, (pM, EC50) [2]: 9.1 pM
B3: S7AB-H8.44 huIgG1 SELF (antibody, V domains shown)
VH: QVQLVQSGAEVKKPGASVKVSCKASGYAFTAAWMNWVRQAPGQGLEWIGRIFPGLGHTNYAQKFQGRATLTEDTSTSTAYMELSSLRSEDTAVYYCARDYSDYYFDYWGQGTLVTVSS
VL: DIQMTQSPSSLSASVGDRVTITCRGSQDINTYLNWYQQKPGKAPKLLIYYTSRLHSGVPSRFSGSGSGTDYTLTISSLQPEDFATYYCQQGNILPWTFGQGTKLEIK

Maximal downregulation (% Siglec-7 remaining) [2]: 2.8%
Receptor downregulation, (pM, EC50) [2]: 43.8 pM
B4: S7AB-H8.44 huIgG2 (antibody, V domains shown)
VH: QVQLVQSGAEVKKPGASVKVSCKASGYAFTAAWMNWVRQAPGQGLEWIGRIFPGLGHTNYAQKFQGRATLTEDTSTSTAYMELSSLRSEDTAVYYCARDYSDYYFDYWGQGTLVTVSS
VL: DIQMTQSPSSLSASVGDRVTITCRGSQDINTYLNWYQQKPGKAPKLLIYYTSRLHSGVPSRFSGSGSGTDYTLTISSLQPEDFATYYCQQGNILPWTFGQGTKLEIK

Maximal downregulation (% Siglec-7 remaining) [2]: 1%
Receptor downregulation, (pM, EC50) [2]: 33.6 pM
B5: S7AB-H8.44 huIgG1 (antibody, V domains shown)
VH: QVQLVQSGAEVKKPGASVKVSCKASGYAFTAAWMNWVRQAPGQGLEWIGRIFPGLGHTNYAQKFQGRATLTEDTSTSTAYMELSSLRSEDTAVYYCARDYSDYYFDYWGQGTLVTVSS
VL: DIQMTQSPSSLSASVGDRVTITCRGSQDINTYLNWYQQKPGKAPKLLIYYTSRLHSGVPSRFSGSGSGTDYTLTISSLQPEDFATYYCQQGNILPWTFGQGTKLEIK

EC50 [1]: 3.2 nM
B6: S7AB-H4 (antibody, V domains shown)
VH: QVQLVQSGAEVKKPGASVKVSCKASGYAFTNCWMNWVRQAPGQGLEWIGRIFPGNGHTNYAQKFQGRVTMTEDTSTSTVYMELSSLRSEDTAVYYCARDYSDYYFDYWGQGTLVTVSS
VL: DIQMTQSPSSLSASVGDRVTITCRASQDINTYLNWYQQKPGKAPKLLIYYTSRLHSGVPSRFSGSGSGTDFTLTISSLQPEDFATYYCQQGNTLPWTFGQGTKLEIK

Kd [3]: 0.256 nM
fold improvement over S7AB-H8 [3]: 4.1 fold
koff [3]: 5.84e-05 s⁻¹
kon [3]: 228000 M⁻¹ s⁻¹
Fold increase in potency compared to AB-H8 [4]: 10.2 fold
Fold increase in potency compared to Chimeric Ab [4]: 30.8 fold
Maximal downregulation (% Siglec-7 remaining) [4]: 17.1%
Receptor downregulation, (EC50) (pM) [4]: 33.2 pM
B7: S7AB-H8.43 (antibody, V domains shown)
VH: QVQLVQSGAEVKKPGASVKVSCKASGYAFTGYWMNWVRQAPGQGLEWIGRIFPGLGHTNYAQKFQGRATLTEDTSTSTAYMELSSLRSEDTAVYYCARDYSDYYFDYWGQGTLVTVSS
VL: DIQMTQSPSSLSASVGDRVTITCRGSQDINTYLNWYQQKPGKAPKLLIYYTSRLHSGVPSRFSGSGSGTDYTLTISSLQPEDFATYYCQQGNILPWTFGQGTKLEIK
notes: also called S7AB-H.43

EC50 [1]: 6.3 nM
B8: S7AB-H10 (antibody, V domains shown)
VH: QVQLVQSGAEVKKPGASVKISCKASGYAFTNCWMNWVRQAPGQGLEWIGRIFPGNGHTNYAQKFQGRATLTEDTSTSTAYMELSSLRSEDTAVYYCARDYSDYYFDYWGQGTLLTVSS
VL: DIQMTQSPSSLSASVGDRVTITCRASQDINTYLNWYQQKPGKAPKLLIYYTSRLHSGVPSRFSGSGSGTDFTLTISSLQPEDFATYYCQQGNTLPWTFGQGTKLEIK

EC50 [1]: 1.6 nM
B9: S7AB-H6 (antibody, V domains shown)
VH: QVQLVQSGAEVKKPGASVKVSCKASGYAFTNCWMNWVRQAPGQGLEWIGRIFPGNGHTNYAQKFQGRVTMTEDTSTSTVYMELSSLRSEDTAVYYCARDYSDYYFDYWGQGTLVTVSS
VL: DVQMTQSPSSLSASVGDRVTITCRASQDINTYLNWYQQKPGKAPKLLIYYTSRLHSGVPSRFSGSGSGTDYTLTISSLQPEDFATYYCQQGNTLPWTFGQGTKLEIK

EC50 [1]: 1.6 nM
B10: S7AB-H3 (antibody, V domains shown)
VH: QVQLVQSGAEVKKPGASVKVSCKASGYAFTNCWMNWVRQAPGQGLEWMGRIFPGNGHTNYAQKFQGRVTMTRDTSTSTVYMELSSLRSEDTAVYYCARDYSDYYFDYWGQGTLVTVSS
VL: DVQMTQSPSSLSASVGDRVTITCRASQDINTYLNWYQQKPGKAPKLLIYYTSRLHSGVPSRFSGSGSGTDYTLTISSLQPEDFATYYCQQGNTLPWTFGQGTKLEIK

EC50 [1]: 3.3 nM
B11: S7AB-H7 (antibody, V domains shown)
VH: QVQLVQSGAEVKKPGASVKISCKASGYAFTNCWMNWVRQAPGQGLEWIGRIFPGNGHTNYAQKFQGRATLTEDTSTSTAYMELSSLRSEDTAVYYCARDYSDYYFDYWGQGTLVTVSS
VL: DIQMTQSPSSLSASVGDRVTITCRASQDINTYLNWYQQKPGKAPKLLIYYTSRLHSGVPSRFSGSGSGTDFTLTISSLQPEDFATYYCQQGNTLPWTFGQGTKLEIK

EC50 [1]: 1.1 nM
B12: S7AB-H5 (antibody, V domains shown)
VH: QVQLVQSGAEVKKPGASVKVSCKASGYAFTNCWMNWVRQAPGQGLEWIGRIFPGNGHTNYAQKFQGRVTMTEDTSTSTVYMELSSLRSEDTAVYYCARDYSDYYFDYWGQGTLVTVSS
VL: DIQMTQSPSSLSASVGDRVTITCRASQDINTYLNWYQQKPGKAPKLLIYYTSRLHSGVPSRFSGSGSGTDYTLTISSLQPEDFATYYCQQGNTLPWTFGQGTKLEIK

EC50 [1]: 1.8 nM
B13: S7AB-H2 (antibody, V domains shown)
VH: QVQLVQSGAEVKKPGASVKVSCKASGYAFTNCWMNWVRQAPGQGLEWMGRIFPGNGHTNYAQKFQGRVTMTRDTSTSTVYMELSSLRSEDTAVYYCARDYSDYYFDYWGQGTLVTVSS
VL: DIQMTQSPSSLSASVGDRVTITCRASQDINTYLNWYQQKPGKAPKLLIYYTSRLHSGVPSRFSGSGSGTDYTLTISSLQPEDFATYYCQQGNTLPWTFGQGTKLEIK

Kd [3]: 0.444 nM
fold improvement over S7AB-H8 [3]: 2.4 fold
koff [3]: 7.55e-05 s⁻¹
kon [3]: 170000 M⁻¹ s⁻¹
Fold increase in potency compared to AB-H8 [4]: 3.4 fold
Fold increase in potency compared to Chimeric Ab [4]: 10.4 fold
Maximal downregulation (% Siglec-7 remaining) [4]: 6.9%
Receptor downregulation, (EC50) (pM) [4]: 98.6 pM
B14: S7AB-H8.45 (antibody, V domains shown)
VH: QVQLVQSGAEVKKPGASVKVSCKASGYAFTEAWMNWVRQAPGQGLEWIGRIFPGYGHTNYAQKFQGRATLTEDTSTSTAYMELSSLRSEDTAVYYCARDYSDYYFDYWGQGTLVTVSS
VL: DIQMTQSPSSLSASVGDRVTITCRGSQDINTYLNWYQQKPGKAPKLLIYYTSRLHSGVPSRFSGSGSGTDYTLTISSLQPEDFATYYCQQGNILPWTFGQGTKLEIK

Kd [3]: 0.198 nM
fold improvement over S7AB-H8 [3]: 5.3 fold
koff [3]: 3.71e-05 s⁻¹
kon [3]: 188000 M⁻¹ s⁻¹
Fold increase in potency compared to AB-H8 [4]: 5.6 fold
Fold increase in potency compared to Chimeric Ab [4]: 16.7 fold
Maximal downregulation (% Siglec-7 remaining) [4]: 3.6%
Receptor downregulation, (EC50) (pM) [4]: 61.2 pM
B15: S7AB-H8.44 (antibody, V domains shown)
VH: QVQLVQSGAEVKKPGASVKVSCKASGYAFTAAWMNWVRQAPGQGLEWIGRIFPGLGHTNYAQKFQGRATLTEDTSTSTAYMELSSLRSEDTAVYYCARDYSDYYFDYWGQGTLVTVSS
VL: DIQMTQSPSSLSASVGDRVTITCRGSQDINTYLNWYQQKPGKAPKLLIYYTSRLHSGVPSRFSGSGSGTDYTLTISSLQPEDFATYYCQQGNILPWTFGQGTKLEIK

Kd [5]: 1.24 nM
koff [5]: 0.000242 s⁻¹
kon [5]: 195000 M⁻¹ s⁻¹
B16: S7AB (antibody, V domains shown)
VH: QVHLQQSGPELVKPGASVKISCKASGYAFTNCWMNWVRQRPGKGLDWIGRIFPGNGHTNYSGKFKDKATLTEDKSSSTAYMQLSSLTSEDSAVYFCARDYSDYYFDYWGQGTTLTVSS
VL: DVQMTQTTSSLSASLGDRVTISCRASQDINTYLNWYQQKPDGTVKLLIYYTSRLHSGVPSRFSGSGSGTDYSLTISNLEQEDIATYFCQQGNTLPWTFGGGTKLEIK
notes: Parental mouse antibody; also called S7-10B5.1; mouse anti-human Siglec-7 antibody
